Assay results reported in patent US20240116999A1, “CONFORMATIONALLY CONSTRAINED GLUCAGON ANALOGUES AND THEIR USE IN GLUCAGON-SINGLE CHAIN INSULIN FUSION PROTEINS” (THE TRUSTEES OF INDIANA UNIVERSITY, priority 2021, published 2024).
Bridge positions count the residues as written; N and C are the ends. Square brackets hold non-standard residues; d marks the D form. Orn = NCCC[C@H](N)C(=O)O

B1: HSQGTFTSDYSOKLDSEOAQDFVQWLMNTEEKFVNQHLCGSHLVEALYLVCGEOGFFYTPETEEGPOOGILEQCCQSICSLEQLENYCN (protein)
chain: HSQGTFTSDYS[Orn]KLDSE[Orn]AQDFVQWLMNTEEKFVNQHLCGSHLVEALYLVCGE[Orn]GFFYTPETEEGP[Orn][Orn]GILEQCCQSICSLEQLENYCN
modifications: lactam 13-17; ends not checked
notes: fusion protein made by trypsin-mediated ligation
B2: HSQGTFTSDYSOKLDSEOAQDFVQWLMNTEEKFVNQHLCGSHLVEALYLVCGEOGFFYTPETEEGPOOGIVEQCCQSICSLEQLENYCN (protein)
chain: HSQGTFTSDYSXKLDSEXAQDFVQWLMNTEEKFVNQHLCGSHLVEALYLVCGEXGFFYTPETEEGPXXGIVEQCCQSICSLEQLENYCN
modifications: K13-E17 lactam; ornithine residues; glucagon/insulin fusion peptide analog; (12)..(12) Xaa at position 12 is ornithine; (18)..(18) Xaa at position 18 is ornithine; (54)..(54) Xaa at position 54 is ornithine; (67)..(67) Xaa at position 67 is ornithine; (68)..(68) Xaa at position 68 is ornithine
notes: as for B1

Key:
STZ (diabetic) rats = assay: In vivo assay in STZ (diabetic) rats, subcutaneous injection; design: species or system rat; conditions: for effect on blood glucose levels: FIG. 17, STZ rats, 12 nmol/kg per rat
From the text: FIG. 17 presents an in vivo assay done in STZ rats.
FIG. 18 presents another in vivo assay done in STZ rats. The four fusion proteins used in FIG. 17 were subcutaneously injected at doses of 23.8 nmol/kg per rat. […] In this study both fusion proteins carrying an active SCI analogue had similar activities.

[1] = Thioflavin T (ThT) fibrillation assay; type: physicochemical; conditions: FIG. 15; month-long assay, 100 μM, pH 7.4, 37° C.
Description: Fibrillation Assays. We employed an automated plate-based fluorescent device to monitor the time course of peptide fibrillation using a Thioflavin T (ThT) assay. This assay is based on the THT fluorescence emission at 480 nm upon binding to mature fibrils when excited at 440 nm. The assay was performed by preparing stock solutions of the fusion protein and the individual peptides in either NaCl 0.9% (pH 2.5) or PBS (pH 7.4). Our experience has identified 100-μM final concentration as optimal fibrillation conditions for glucagon analogues. Stock solutions were diluted with NaCl 0.9% or 1X PBS buffer, pH adjusted (with 1N HCl or 1N NaOH) mixed with Thioflavin-T (THT) at a final concentration of 16 μM, centrifuged, and 250 μl of the sample were placed on a 96-well plate with 4-10 technical replicates. Measurements were done every 15 minutes and the sample agitated at 1096 cpm at 37° C. on a Synergy H1 microplate reader (BioTek, Winooski, VT). The lag time, defined as the time-point at which fibrillation starts its exponential phase, was considered as the point at which fluorescence was 3 times the background signal.

Row | Molecule | effect on blood glucose levels (STZ (diabetic) rats) | effect on blood-glucose concentrations (STZ (diabetic) rats; FIG. 18, STZ rats, 23.8 nmol/kg per rat) | formation of amyloid-like fibrils [1] | activity at 23.8 nmol/kg relative to the 12-nmol/kg rat doses (STZ (diabetic) rats; FIG. 18 vs FIG. 17, STZ rats)
1 | B1 | slight rise in blood glucose levels | didn't cause an increase in blood-glucose concentrations | – | –
2 | B2 | higher activity than the corresponding analogue containing an active SCI and inactive glucagon | – | did not form amyloid-like fibrils within the duration of the experiment | stayed in a similar range
